From paper PMC2770665

T1: EcoRII-N (His-tagged) (UniProt P14633 1-180)
T1 sequence: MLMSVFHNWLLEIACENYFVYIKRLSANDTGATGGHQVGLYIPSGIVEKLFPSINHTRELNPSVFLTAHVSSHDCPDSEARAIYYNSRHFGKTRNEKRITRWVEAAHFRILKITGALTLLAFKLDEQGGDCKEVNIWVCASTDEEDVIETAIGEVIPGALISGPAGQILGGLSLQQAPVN

T2: EcoRII-C (UniProt P14633 183-404)
T2 sequence: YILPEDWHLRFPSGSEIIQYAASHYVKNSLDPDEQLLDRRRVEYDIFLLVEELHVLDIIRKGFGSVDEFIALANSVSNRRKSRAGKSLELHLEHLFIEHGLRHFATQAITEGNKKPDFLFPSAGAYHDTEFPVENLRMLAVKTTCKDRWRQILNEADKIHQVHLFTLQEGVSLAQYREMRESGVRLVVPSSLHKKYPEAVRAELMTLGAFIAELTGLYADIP


How the values were obtained:
EcoRII-N (His-tagged) = biological target: T1, EcoRII-N (His-tagged); assay: EMSA
EcoRII-C = biological target: T2, EcoRII-C; assay: EMSA

| Binder | binding result (EcoRII-N (His-tagged)) | binding result (EcoRII-C) |
| --- | --- | --- |
| HM(A) 16-mer (dsDNA, 5-methylcytosine at strand 2 position 8 (second C of CCAGG)) DNA 1: CGTAGCCTGGTCGATC DNA 2: GATCGACCAGGCTACG | no binding | – |
| HM(T) 16-mer (dsDNA, 5-methylcytosine at strand 1 position 7 (second C of CCTGG)) DNA 1: CGTAGCCTGGTCGATC DNA 2: GATCGACCAGGCTACG | no binding | – |
| T/2 25-mer (dsDNA, strand 2 position 13 is 2-aminopurine (written A) replacing central A) DNA 1: CGCACGACTTCCTGGAAGAGCACGC DNA 2: GCGTGCTCTTCCAGGAAGTCGTGCG | no binding | – |
| DM 16-mer (dsDNA, 5-methylcytosine at strand 1 position 7 and strand 2 position 8) DNA 1: CGTAGCCTGGTCGATC DNA 2: GATCGACCAGGCTACG | – | no binding |
